Experimental data taken from PMC5597622, “Engineered factor Xa variants retain procoagulant activity independent of direct factor Xa inhibitors” (Nature Communications, 2017).
Read-outs that look alike come from different tables or passages of the source. Non-standard residues stand in square brackets, D forms with d. Residues, ends and D or L forms follow the SMILES beside them. *: point of attachment. dChg = N[C@@H](C(=O)O)C1CCCCC1; pNA = O=[N+]([O-])c1ccc(N*)cc1; Cbz = O=C(OCc1ccccc1)*; Moc = COC(=O)*

What was measured:
[1] = biological target: purified recombinant P. textilis venom FXa (v-FXa) (Pseudonaja textilis, UniProt Q56VR3); experiment: biochemical
[2] = biological target: RVV-X activated P. textilis venom FX (Pseudonaja textilis, UniProt Q56VR3); experiment: biochemical
[3] = biological target: RVV-X activated P. textilis isoform FX (Pseudonaja textilis, UniProt Q1L658); experiment: biochemical
[4] = biological target: RVV-X activated P. textilis liver FX (Pseudonaja textilis, UniProt Q1L659); experiment: biochemical
pd-FXa (h-FXa) [5] = biological target: T1, pd-FXa (h-FXa) (Homo sapiens, UniProt P00742); assay type: biochemical; settings: read-out: S2765^a K m; n = 2
T1 construct: gene F10; plasma-derived human FXa (Haematologic Technologies); free or prothrombinase-assembled with FV-810 and PCPS, see series

wt-FXa (WT) [6] = biological target: T2, wt-FXa (WT) (Homo sapiens, UniProt P00742); assay type: biochemical; settings: read-out: S2765^a K m; n = 2
T2 construct: gene F10; free or prothrombinase-assembled with FV-810 and PCPS, see series

FXa-A [7] = test system: T3, FXa-A; assay type: biochemical; settings: n = 2; read-out: S2765^a K m
T3 construct: His91-Tyr99 replaced with homologous region of P. textilis venom FX

FXa-B [8] = test system: T4, FXa-B; assay type: biochemical; settings: n = 2; read-out: S2765^a K m
T4 construct: His91-Tyr99 replaced with homologous region of T. carinatus venom FX

FXa-C [9] = test system: T5, FXa-C; assay type: biochemical; settings: n = 2; read-out: S2765^a K m
T5 construct: His91-Tyr99 replaced with homologous region of P. textilis isoform FX

pd-FXa (h-FXa) [10] = biological target: T1, pd-FXa (h-FXa); assay type: biochemical; settings: read-out: S2765^b K m; n = 2
wt-FXa (WT) [11] = biological target: T2, wt-FXa (WT); assay type: biochemical; settings: read-out: S2765^b K m; n = 2
FXa-A [12] = test system: T3, FXa-A; assay type: biochemical; settings: n = 2; read-out: S2765^b K m
FXa-B [13] = test system: T4, FXa-B; assay type: biochemical; settings: n = 2; read-out: S2765^b K m
FXa-C [14] = test system: T5, FXa-C; assay type: biochemical; settings: n = 2; read-out: S2765^b K m
pd-FXa (h-FXa) [15] = biological target: T1, pd-FXa (h-FXa); assay type: biochemical; settings: read-out: SpecXa Michaelis–Menten constant (K m)
wt-FXa (WT) [16] = biological target: T2, wt-FXa (WT); assay type: biochemical; settings: read-out: SpecXa Michaelis–Menten constant (K m)
FXa-A [17] = test system: T3, FXa-A; assay type: biochemical; settings: read-out: SpecXa Michaelis–Menten constant (K m)
FXa-B [18] = test system: T4, FXa-B; assay type: biochemical; settings: read-out: SpecXa Michaelis–Menten constant (K m)
FXa-C [19] = test system: T5, FXa-C; assay type: biochemical; settings: read-out: SpecXa Michaelis–Menten constant (K m)
[20] = biological target: chimeric factor Xa variant B (human FXa with His91-Tyr99 replaced by the homologous region of Tropid (human | Tropidechus carinatus))
[21] = biological target: chimeric factor Xa variant C (human FXa with His91-Tyr99 replaced by the homologous region of P. textilis isoform FX) (human | Pseudonaja textilis)
[22] = biological target: plasma-derived human factor Xa (human)
[23] = biological target: recombinant wild-type human factor Xa (human)
[24] = biological target: constitutively active partial B-domainless recombinant form of human FV (FV-810) (human) (UniProt P12259); experiment: kinetic assay of prothrombinase assembly (rate of prothrombin activation); apparent; steady-state initial velocities of prothrombin activation at 25 °C in assay buffer (20 mM Hepes, 0.15 M NaCl, pH 7.5, 5 mM CaCl2, 0.1% PEG8000) with PCPS (50 µM); how the cofactor was varied is not told
pd-FXa = biological target: T6, pd-FXa (Homo sapiens, UniProt P00742); assay type: biochemical
T6 construct: the heavy chain derived from α or β FXa (α/β), the FXa light chain (LC); purchased Haematologic Technologies (Essex Junction, VT, USA); host or cells: human plasma

wt-FXa = biological target: T7, wt-FXa (Homo sapiens, UniProt P00742); experiment: Inhibition of FXa by TFPI and rTAP (residual amidolytic activity); assay type: biochemical
T7 construct: made in house; host or cells: HEK293 (co-transfected with furin)

FXa-A [25] = biological target: FXa-A (Homo sapiens, UniProt P00742); assay type: biochemical, human-snake chimera; settings: rTAP 0.5–100 nM, 1 nM FXa, 30 min
FXa-B [26] = biological target: FXa-B (Homo sapiens, UniProt P00742); experiment: Inhibition of FXa by TFPI and rTAP (residual amidolytic activity); assay type: biochemical, human-snake chimera; settings: rTAP 0.5–100 nM, 1 nM FXa, 30 min
FXa-B [27] = experiment: as above; assay type: biochemical, human-snake chimera; settings: in the chimeric FXa variants
FXa-C [28] = biological target: T8, FXa-C (Homo sapiens, UniProt P00742, E317A/INS311KKFVPPQKA/K316L/N312Y/R313K/T315D/T318A); assay type: biochemical, human-snake chimera; settings: rTAP 0.5–100 nM, 1 nM FXa, 30 min
T8 construct: made in house

[29] = biological target: chimeric factor Xa variant B (human FXa with His91-Tyr99 replaced by the homologous region of Tropid (human | Tropidechus carinatus)); experiment: inhibition of enzyme amidolytic activity (Morrison tight-binding fit)
[30] = biological target: chimeric factor Xa variant C (human FXa with His91-Tyr99 replaced by the homologous region of P. textilis isoform FX) (human | Pseudonaja textilis); experiment: as above
[31] = biological target: plasma-derived human factor Xa (human); experiment: as above
[32] = biological target: recombinant wild-type human factor Xa (human); experiment: as above

COc1ccc(-n2nc(C(N)=O)c3c2C(=O)N(c2ccc(N4CCCCC4=O)cc2)CC3)cc1 [Apixaban, 1-(4-methoxyphenyl)-7-oxo-6-(4-(2-oxopiperidin-1-yl)phenyl)-4,5,6,7-tetrahydro-1H -pyrazolo[3,4-c]pyridine-3-carboxamide]
IC50 [1]: ≥ 100000 nM
IC50 [2]: ≥ 100000 nM
IC50 [3]: ≥ 100000 nM
IC50 [4]: 12 nM

O=C(NC[C@H]1CN(c2ccc(N3CCOCC3=O)cc2)C(=O)O1)c1ccc(Cl)s1 [Rivaroxaban, 5-chloro-N-({(5S)-2-oxo-3-[4-(3-oxomorpholin-4-yl)phenyl]-1,3-oxazolidin-5-yl}methyl)thiophene-2-carboxamide]
IC50 [1]: ≥ 30000 nM

N=C(N)NCCC[C@H](NC(=O)CNC(=O)[C@@H](CCCNC(=N)N)NC(=O)OCc1ccccc1)C(=O)Nc1ccc([N+](=O)[O-])cc1 [S2765, N-α-benzyloxycarbonyl-D-Arg-Gly-Arg-pNA] (Cbz-[dR]-Gly-Arg-pNA)
Km (pd-FXa (h-FXa) [5]): 59 ± 19 µM
Km (wt-FXa (WT) [6]): 33 ± 7 µM
Km (FXa-A [7]): 39 ± 7 µM
Km (FXa-B [8]): 49 ± 8 µM
Km (FXa-C [9]): 60 ± 11 µM
Km (pd-FXa (h-FXa) [10]): 29 ± 8 µM
Km (wt-FXa (WT) [11]): 26 ± 8 µM
Km (FXa-A [12]): 243 ± 50 µM
Km (FXa-B [13]): 249 ± 29 µM
Km (FXa-C [14]): 216 ± 28 µM

COC(=O)N[C@@H](C(=O)NCC(=O)N[C@@H](CCCNC(=N)N)C(=O)Nc1ccc([N+](=O)[O-])cc1)C1CCCCC1 [SpecXa, methoxycarbonylcyclohexylglycylglycyl-Arg-pNA] (Moc-[dChg]-Gly-Arg-pNA)
Km (pd-FXa (h-FXa) [15]): 138 µM
Km (wt-FXa (WT) [16]): 135 µM
Km (FXa-A [17]): 645 µM
Km (FXa-B [18]): 658 µM
Km (FXa-C [19]): 659 µM

antithrombin (from UniProt P01008 33-464) (natural protein)
k 2, UFH: second-order rate constant of FXa inhibition by antithrombin with unfractionated heparin [20]: 1.02e+06 M⁻¹ s⁻¹
k 2, uncatalyzed: second-order rate constant of FXa inhibition by antithrombin [20]: 410 M⁻¹ s⁻¹
k 2, UFH: second-order rate constant of FXa inhibition by antithrombin with unfractionated heparin [21]: 6.73e+06 M⁻¹ s⁻¹
k 2, uncatalyzed: second-order rate constant of FXa inhibition by antithrombin [21]: 950 M⁻¹ s⁻¹
k 2, UFH: second-order rate constant of FXa inhibition by antithrombin with unfractionated heparin [22]: 3.59e+06 M⁻¹ s⁻¹
k 2, uncatalyzed: second-order rate constant of FXa inhibition by antithrombin [22]: 1550 M⁻¹ s⁻¹
k 2, UFH: second-order rate constant of FXa inhibition by antithrombin with unfractionated heparin [23]: 3.09e+06 M⁻¹ s⁻¹
k 2, uncatalyzed: second-order rate constant of FXa inhibition by antithrombin [23]: 4070 M⁻¹ s⁻¹

chimeric factor Xa variant B (human FXa with His91-Tyr99 replaced by the homologous region of Tropid (enzyme)
Kd [24]: 0.85 nM

chimeric factor Xa variant C (human FXa with His91-Tyr99 replaced by the homologous region of P. textilis isoform FX) (enzyme)
Kd [24]: 0.57 nM

plasma-derived human factor Xa (enzyme)
Kd [24]: 0.41 nM

rTAP (YNRLCIKPRDWIDECDSNEGGERAYFRNGKGGCDSFWICPEDHTGADYYSSYRDCFNACI)
Ki (pd-FXa): 0.87 ± 0.18 nM
Ki (wt-FXa): 0.7 ± 0.04 nM
Ki (FXa-A [25]): 26.3 ± 8.45 nM
Ki (FXa-B [26]): 7.92 ± 1.88 nM
fold reduced binding (FXa-B [27]): at least 11 fold
Ki (FXa-C [28]): 20.2 ± 6.56 nM

recombinant tick saliva anticoagulant protein (from UniProt P17726 1-60) (natural protein)
Ki [29]: 7.92 nM
Ki [30]: 20.2 nM
Ki [31]: 0.87 nM
Ki [32]: 0.7 nM

recombinant wild-type human factor Xa (enzyme)
Kd [24]: 1.44 nM

tissue factor pathway inhibitor alpha (from UniProt P10646-1 29-304) (natural protein)
Ki [29]: 4.41 nM
Ki [30]: 6.46 nM
Ki [32]: 1.62 nM
